Measurements from the domain aggregation screens of Martell et al. (2025).

Test: soluble fraction after stress (log2 fold change); higher = more stays soluble; pooled small domains, quantitative proteomics
Conditions: stress: 75 degC
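Further: 20 min heating vs room temperature control held 20 min.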

Row | Sequence | soluble fraction (log2)
1 | HMETSLVIQIDGAVNSPGIYQVTPGTRIFEALELAGGVREDAQTEALNLALPVYDGQRISIPSSFA | -0.153
2 | HMETTVSYSGVVTASVLRIRKGPSVSSSVAGTLKKGTGVSIIFEDNGWGKLADGSGWVSLTYIKKNSTP | -2.33
3 | HMETWDQAYETIKQNILNLTYPPGMPLTEAKLAEELGMSRSPVRTALRMLQTDGLIVTDYYKSMTVKEI | -1.95
4 | HMETWKLYKRAYKKYYARYMKGNMSEADFKAWATQAAADRDAAIEQITPEIDAALKAQIIEQLREKLNR | -1.11
5 | HMEVAAAENYRSKLSSFAKDTISVWQTELLLGTISDDDKASLTEWMAYIKALQVVDTSDPESITWPTEPT | -1.14
6 | HMEVAASEQRDNLWALARRVLSGEQYDVLYLRYVEDFSVAQIADVVGKTQTHVKVLLFRGRNNLGSRLRS | 0.0441
7 | HMEVENAQLLARLTPQEHRVFERVVAGLSNREIGSEMDISIKTVEVHRARVMRKLEANSVAELVRFHIHN | -2.37
8 | HMEVGDTYLGKVTRVSSFGAFIEVLPGKEGLMRQNDAGEGGMPEVGDEVMVRVMEVDHLGRINLSGKLDD | -0.102
9 | HMEVGKRIAEIRKENRMSQEQFGQLFHVTRQTVSNWENAKSYPDLQTLVKISELFEITMDELLK | -1.45
10 | HMEVKVSGHLEAIGGVYHMKLSWIDDAGKRRRKSKSTGLAERGNKKRANDMLIDFMREQEAEIAASGD | -2.05
11 | HMEVLSKRGSTGTEVINIQKKLKNWGYYTGSVDGIYGKLTEEAVRYFQRTNGLTVDGIAGKNTLAAMGIA | -0.619
12 | HMEVNLEPLIALLRKHRDLDLSGYSKSTLGRRITYFMGLNKISSIDELGRRLAEDDLLFQEFLDKLT | -0.264
13 | HMEVSLEDKMDYLTNYATTHKNFSFRNLLESSSGKIEVIVTFLAILELMKMGRINISQEHIFDDIIIESRI | -2.68
14 | HMEVSTRQVRAALRDIIEAEDKKRPLSDEAITARLREQGLPVARRTVAKYREQMGILAARLRK | -0.662
15 | HMEVVRVEPGATVRDLGEALGVPPTRIIQILMGLGEMKTVTQTLSTEEIELVAEELGRRVEV | -0.108
16 | HMEWVVVPDVRRQLLPEAQRRVNKARLRLEVAGGWPAEPLLAMVVDQKPGPETRVPLNSIVVVVVRNLP | -0.981
17 | HMEYELYALKEEVLKRLTREDRELLILLFEERRTIHAVAQRLGLSDSAVYKRRTQLVNKVKVIASMLM | -2.22
18 | HMEYKNYYDSPVGRLELLSDGVSLTAVLFENQQGDGTREENTSLAIFKEATQWLDAYFKGDNPEITIPL | 0.0228
19 | HMEYKTGIINTNKVRVRNAADADATVIFAINKDIKVKILAEENGFYKIGVSVKNRGNGEDLIGFVKKELIT | -1.81
20 | HMEYQTVEKSEAEQIIQELEKAERLALKVYSKNDIITGISVSDGKSYYFSAELVPMLKNIIENPEIKIL | -0.795
21 | HMEYRVRDKMTDILELLTEHRGRIALRDAFPTGTREELLAAFLALLELTKMQTVIVYQDRLYDDIQIVMK | -0.354
22 | HMEYSTLEIYSQTKKDLIEKSPHLNKVVYDKDDGYIYLLSFEKEDDLTSFKSNIENDSDIKRIEANV | 0.121
23 | HMEYTVNRLAQISGVSKRTLRYYDEIGLLRPERVNPNGYRIYGQMQVDLLQQILFYRELGLPLEEIREII | -0.502

Row | Sequence | soluble fraction (log2)
24 | HMFAATGVVNAPSGLVLRETASKGGNPLATVPDKAQVEIVEEDGEWYKVKVNEQTGYLFAEFVNKTE | -0.0895
25 | HMFAQDQLFKKDNSKVDVKILEINTTEIKYKLFTYQDGPTITVAKKDVALIIYQNGVHEVIT | -2.53
26 | HMFAVPAPEVDDILSEKKVDVLLLGPQVRYLLEQFTEKLKDKNIPIGVIPMVDYGMMNGSKVLALAEELIG | 0.131
27 | HMFDFGNHLRMLREKHGISQEELGRRVGRAGSVISNYENNIKIPTLDVLTTMARIYDVSLDYLVG | -1.59
28 | HMFDFNNLSSLSDVELSVYRFVVNNPEKVAYMRVRDIAQKTHVANSSVMRFVHKIGFASFPEFKAYLKNIN | -0.997
29 | HMFDITKEVLKQSGLYNLYKNDESLEGINRIQNIEELLNGIKDFVENNEKSQASVSSFLQDVALATDQ | 0.258
30 | HMFDKVSVNNLAEAIGRLDGIYQDVLRLYYVHELPSKEIGKILNINHLTVNTRLKRAREKLFKMLKEE | -3.11
31 | HMFDNPLSERDKEILNHISMGKSNKEIANQVGLAEQTIKNTISVILDKTFTSNRAQAASMATKNKW | 0.666
32 | HMFDPTDLPEKQLMVYEIIKSNNGINMTNIASLLGFNKTTVDNAIRALKKKEIVVFKGTNRSGGYFNT | -1.91
33 | HMFEDEYLETMYAFYETDPQALVRTGDLASSLKVSPASATEMVQRLASKGFVDYIPYKGASLTELGLAM | 0.0785
34 | HMFEDYLRMKGLSIVSFSKQTGIPISTLRNLNKIRYDKWKIRYLEELSNVLNKTIQEIIEELKNMG | -3.5
35 | HMFEFFKGIYSISLLKKDGIFFVTFKDENKEAVKHIFPEKPTALELGIKVMEMFEYKERYDGII | -0.455
36 | HMFEPLTDREREVLQALADGLSDKEIAERLYISPATVRTHITAILGKLDANSRLQAVVVAARHNLVTL | -0.478
37 | HMFERISELLTDEELAVYKRGRNANASSVPKHADIADYRRATGVEALFGYLYIKGEIDRINQLFELA | -0.154
38 | HMFESQYIGKIATAITDISAFSGRLKIYDENWEARTLGEDAPEIKKGAKVKIVRHDDLTMFVEKK | -0.397
39 | HMFETLVLALAQAWPAERGPVEALQFEGGRLSLQRSGFADEQVEALRQRLSSEGWTLQTEQGRLILNKAG | -1.17
40 | HMFFDSDTDIQNALNAENSIKKYQLFRTQTLYNSAQSDIDFVNQPEVKAKLFDALENLKNKLGFLAEPT | -0.0329
41 | HMFGIEIPEEAGKLQDYTLTDDDLEGGNTLKEIQFPQGARVVIIRRDDKFIIPDGSVELQSGDQLLIIYGE | -1.59
42 | HMFGSKDVKRAIEDYAAAMSSQPRALSAPQRKVLIRHLATSGLLQLRGAAKIVADELGISRASVYNALKV | -1.53
43 | HMFHDPTMEETLINLKGITNEVLSLLSSSKIKKLEDLAEMSVPELRDIVENISDEEASALIMEARKPWF | -0.22
44 | HMFHGEGVQANNIQAYIVLKMAAVNGAEDALDTADEVSEKMSREDLETATQVLGQIFRKYLMELQSA | -1.22
45 | HMFIKVEVPDLTGMTLTEVRKALEEKNLKMGDIRPAGQTSLVAKVINQSPQAKMVVDEYSEVSIQFEE | -0.985
46 | HMFIMQTVALGSEGPDVRALQSILNRIGYNAGTVDGIFGSRTRQAVIAFQRNNGLAADGVAGPATWG | 0.188

Row | Sequence | soluble fraction (log2)
47 | HMFINITAITGNNYNTPDAARNALPNTYNKKIGLVFTYRDLTNRYRVYLYNSETSNYIPLDSYM | -3.5
48 | HMFIPGDSVRVHVKVVEGSNERIQMFEGVVIARQGSGVRENFTVRRISYGVGIERTFPVHSPRL | -0.226
49 | HMFISVDGLIHMGRTHLVILGGVEFARGDMIPETGEVVKSIGADSVVLELPDTGMRRTLNFV | -2.97
50 | HMFKINNIIVSGLSEKSNLQTSEEIKNILFENIFFIKKDVLFKILEKNNLINSFEIKKIYPDTIEVKIKKT | 0.0453
51 | HMFKITNTLNKTAEVYLTIPENKKGKGKIMISVNGAFHELEAMTENDKIQSGAVVKVVRIENDNILIVET | -2.18
52 | HMFKMRVNGKEVIGMAITAKPQANPIDVADEIKKFVIDANTKLPSTMKLEVLYDATGIFRASISEVIS | -1.08
53 | HMFLDKDTLNQLYRFGIALTGNEQDSQDVLHTAIERFLRNKPQQINQQAAYIRTIMRNYWYDELRKLKTQ | -3.06
54 | HMFLPETEVKSFFHRGITKISPSLAMDIADFFRMPFAVILKRALALEVISDEQYRSFMTVKPEHV | 0.137
55 | HMFLSQQDINRANAASVTDMGDIIRRTFERNAAEINGLELSDAEKKDAVKQMATLATTALKTAAGAVNPY | -0.0457
56 | HMFLSSEERRERIIEVLRQQDEVTVVELSHRLGVSEVTTRKDLQQLEEQGYLTRVRGGAVVSGRGQL | -0.0348
57 | HMFMNFAEHLMALRKQRGWSQEELGSQIGVTRQTVSKWEMGQSTPELEKLVELSRLFGMSIDQLVGL | -0.118
58 | HMFNISEKLKKYRNALGLTQTEVAEKIEITKPTYASYEKGKDISIGTLKKLADLFEVSFESFFSE | -0.283
59 | HMFNLFPHLSVLRNITLAPQKVKGLNRSESNEIAMSLLERVGIPEQSDKFPSQLSGGQQQRVAIARALAM | -0.502
60 | HMFPELSEEEQIIVSLLQKQPDGLQINTLVVESNIPVNRMSGILFELEMKGIIRMAAGGVYRLL | -1.35
61 | HMFQEGLVAPPAYTRPESFRGWEVPEILRSGNFPAIAKWQHEESLRLTRERRPAMLEAYERRT | -0.107
62 | HMFQNYTDAVVVASKTFFYNMPDESTRKSAYLIQGDRIMVEKSQRNFVYVTFTNEASGRTTTGWLKSDDLE | -2.65
63 | HMFSDDEINRLKARDSILVNLRDSEKQVWELYTDGKTVQNIANQLNKHKQSISATIINIKNKISRKQNMLK | -0.709
64 | HMFSGVQLGQAISEAIKRKNVSQKEVADHFGVKQPSVSGWIKNGRIDKKHLDKLIDYFSDVVTPSHFGIE | 0.27
65 | HMFSQDQIFLRSGEKIDARVIEVTPEFIKYKSKANPEGPLYSKKITDVLLITYANGTTEVYE | -0.764
66 | HMFTDAEIKQFAAAAVEVTKIQQDSTISAADKQPKMLAVVQSSGLPPEKFNQIGQAAAADPALQQRIQA | 0.038
67 | HMFTEPQKLVKRILNMLGHRYDDASIQARSDFQASNNYHKVQVKKKRESMEEYTAWLEEMYDAYRIN | -1.49
68 | HMFTFEDMDKFESLLTTGLTDVQRRIYSLVTHDGKEYDLIAETLGISVEAVRMHMSRARKKIRENYKKID | -3.38
69 | HMFTIGENIRDLRLERAITQEQLAEQLNVSAPAVSKWERGEAYPDITLVPKLAEILGVSTDKLFGVD | 0.0273
